Three substances from patent publication EP1088069B1 can be followed below.

Test in all cases: cell-based or functional assay
Assay [1] deals with Angiostatin + Binding Domain (yeast two-hybrid bait fusion) (UniProt P00747).
For another assay, the target named is Binding Domain alone.
In another assay the target is p53 + Binding Domain.

A value given as a limit tells only on which side of the number the result lay.

UniProt P00747, sequence (P00747 99-459): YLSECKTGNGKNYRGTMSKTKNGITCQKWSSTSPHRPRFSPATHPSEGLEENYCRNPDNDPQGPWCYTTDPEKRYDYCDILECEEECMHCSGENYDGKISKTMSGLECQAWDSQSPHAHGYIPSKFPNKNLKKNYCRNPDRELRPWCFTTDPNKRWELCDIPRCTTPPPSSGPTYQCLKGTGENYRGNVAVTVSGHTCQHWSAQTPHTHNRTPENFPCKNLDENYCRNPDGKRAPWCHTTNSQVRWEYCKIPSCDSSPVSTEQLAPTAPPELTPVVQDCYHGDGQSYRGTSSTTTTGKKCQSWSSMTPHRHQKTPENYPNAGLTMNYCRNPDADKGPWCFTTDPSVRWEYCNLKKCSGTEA

As to “Activation Domain alone (from UniProt P04386 768-881)”, the β-Gal Activity in assay [1] was under 0.04 u. For the substance “Big3 - Activation Domain (yeast two-hybrid prey fusion) (from UniProt Q4VCS5 871-1013)”, the β-Gal Activity in assay [1] turned out to be 15 u; in the assay with Binding Domain alone, 0.07 u; in the assay with p53 + Binding Domain, 0.05 u.

For “SV40LT - Activation Domain (from UniProt P03070 84-708)”, the β-Gal Activity with p53 + Binding Domain worked out at 90 u.
